± gives the uncertainty stated by the source.

B1: E-1-P; numbered along this chain (parent)
chain: EASNCFAIRHFENKFAVETLICFNLFLNSQEKHY

In the data set the parent is B1. The experiment in a line: amyloid nucleation score relative to WT ADan (yeast Sup35 reporter selection) (log enrichment difference); higher = more amyloid nucleation. The procedure:
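Deep mutational scan of the ADan peptide fused to the Sup35 nucleation domain (SupN) in S. cerevisiae [psi-pin-], covering all single amino-acid substitutions and stop truncations (truncations = sequence up to the stop). After 24 h Cu2+ induction, cells were selected on -ADE-URA plates for 7 d at 30 °C. The nucleation score is log enrichment (output/input, deep sequencing) minus that of WT ADan, as the error-weighted mean of 3 biological replicates (DiMSum).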
PASNCFAIRHFENKFAVETLICFNLFLNSQEKHY: the amyloid nucleation score is 0.117 ± 0.38.

In the case of AASNCFAIRHFENKFAVETLICFNLFLNSQEKHY, the amyloid nucleation score came to 0.401 ± 0.18.

In the case of GASNCFAIRHFENKFAVETLICFNLFLNSQEKHY, the amyloid nucleation score is 0.0173 ± 0.14.

On to WASNCFAIRHFENKFAVETLICFNLFLNSQEKHY, for which the amyloid nucleation score worked out at 0.00448 ± 0.2.

As to EAMNCFAIRHFENKFAVETLICFNLFLNSQEKHY, the amyloid nucleation score is 0.163 ± 0.25.

Take EALNCFAIRHFENKFAVETLICFNLFLNSQEKHY: the amyloid nucleation score is -0.738 ± 0.16.

With EAENCFAIRHFENKFAVETLICFNLFLNSQEKHY, the amyloid nucleation score was determined as 0.224 ± 0.23.

For EAVNCFAIRHFENKFAVETLICFNLFLNSQEKHY, the amyloid nucleation score is -0.392 ± 0.16.

Take EATNCFAIRHFENKFAVETLICFNLFLNSQEKHY: the amyloid nucleation score is -0.349 ± 0.21.

Regarding EAGNCFAIRHFENKFAVETLICFNLFLNSQEKHY, the amyloid nucleation score was 0.112 ± 0.14.

On to EAWNCFAIRHFENKFAVETLICFNLFLNSQEKHY, for which the amyloid nucleation score was -0.398 ± 0.25.

Turning to EAFNCFAIRHFENKFAVETLICFNLFLNSQEKHY, the amyloid nucleation score is -0.00261 ± 0.19.

Consider EAINCFAIRHFENKFAVETLICFNLFLNSQEKHY, for which the amyloid nucleation score is -1.1 ± 0.23.

Take EANNCFAIRHFENKFAVETLICFNLFLNSQEKHY: the amyloid nucleation score was determined as 0.0448 ± 0.23.

EADNCFAIRHFENKFAVETLICFNLFLNSQEKHY: the amyloid nucleation score was determined as 0.481 ± 0.22.

In the case of EAYNCFAIRHFENKFAVETLICFNLFLNSQEKHY, the amyloid nucleation score is 0.296 ± 0.25.

Take EAKNCFAIRHFENKFAVETLICFNLFLNSQEKHY: the amyloid nucleation score stood at 0.21 ± 0.27.

Consider EAANCFAIRHFENKFAVETLICFNLFLNSQEKHY, for which the amyloid nucleation score turned out to be 0.258 ± 0.18.

Consider EARNCFAIRHFENKFAVETLICFNLFLNSQEKHY, for which the amyloid nucleation score is -0.46 ± 0.17.

Regarding EACNCFAIRHFENKFAVETLICFNLFLNSQEKHY, the amyloid nucleation score was determined as 0.601 ± 0.2.

EAHNCFAIRHFENKFAVETLICFNLFLNSQEKHY: the amyloid nucleation score is -0.359 ± 0.39.

Turning to EAQNCFAIRHFENKFAVETLICFNLFLNSQEKHY, the amyloid nucleation score was -0.501 ± 0.37.

As for EAPNCFAIRHFENKFAVETLICFNLFLNSQEKHY, the amyloid nucleation score was 0.338 ± 0.36.

EASQCFAIRHFENKFAVETLICFNLFLNSQEKHY: the amyloid nucleation score was -0.267 ± 0.22.

As to EASECFAIRHFENKFAVETLICFNLFLNSQEKHY, the amyloid nucleation score was determined as 0.296 ± 0.18.

In the case of EASICFAIRHFENKFAVETLICFNLFLNSQEKHY, the amyloid nucleation score is -3.04 ± 0.28.

On to EASMCFAIRHFENKFAVETLICFNLFLNSQEKHY, for which the amyloid nucleation score is -4.92 ± 0.93.

Consider EASGCFAIRHFENKFAVETLICFNLFLNSQEKHY, for which the amyloid nucleation score is -2.24 ± 0.15.

Regarding EASKCFAIRHFENKFAVETLICFNLFLNSQEKHY, the amyloid nucleation score was determined as 0.0897 ± 0.19.

As for EASCCFAIRHFENKFAVETLICFNLFLNSQEKHY, the amyloid nucleation score was -2.58 ± 0.3.

For EASDCFAIRHFENKFAVETLICFNLFLNSQEKHY, the amyloid nucleation score is 0.376 ± 0.17.

Regarding EASRCFAIRHFENKFAVETLICFNLFLNSQEKHY, the amyloid nucleation score was -0.0776 ± 0.12.

EASLCFAIRHFENKFAVETLICFNLFLNSQEKHY: the amyloid nucleation score is -4.8 ± 0.57.

EASFCFAIRHFENKFAVETLICFNLFLNSQEKHY: the amyloid nucleation score was -4.13 ± 0.42.

In the case of EASWCFAIRHFENKFAVETLICFNLFLNSQEKHY, the amyloid nucleation score is -3.34 ± 0.39.

With EASPCFAIRHFENKFAVETLICFNLFLNSQEKHY, the amyloid nucleation score is -0.352 ± 0.18.

Take EASTCFAIRHFENKFAVETLICFNLFLNSQEKHY: the amyloid nucleation score is -2.19 ± 0.26.

On to EASHCFAIRHFENKFAVETLICFNLFLNSQEKHY, for which the amyloid nucleation score is -0.547 ± 0.26.

EASSCFAIRHFENKFAVETLICFNLFLNSQEKHY: the amyloid nucleation score is -0.879 ± 0.12.

EASVCFAIRHFENKFAVETLICFNLFLNSQEKHY: the amyloid nucleation score is -4.24 ± 0.49.

Take EASACFAIRHFENKFAVETLICFNLFLNSQEKHY: the amyloid nucleation score is -3.1 ± 0.4.

Turning to EASYCFAIRHFENKFAVETLICFNLFLNSQEKHY, the amyloid nucleation score was -2.45 ± 0.28.

As to EASNCFAMRHFENKFAVETLICFNLFLNSQEKHY, the amyloid nucleation score worked out at 0.354 ± 0.15.

Turning to EASNCFAARHFENKFAVETLICFNLFLNSQEKHY, the amyloid nucleation score is 0.49 ± 0.13.

With EASNCFAKRHFENKFAVETLICFNLFLNSQEKHY, the amyloid nucleation score came to 0.701 ± 0.17.

On to EASNCFADRHFENKFAVETLICFNLFLNSQEKHY, for which the amyloid nucleation score turned out to be 0.678 ± 0.15.

Take EASNCFALRHFENKFAVETLICFNLFLNSQEKHY: the amyloid nucleation score was 0.288 ± 0.099.

For the variant EASNCFANRHFENKFAVETLICFNLFLNSQEKHY, the amyloid nucleation score worked out at 0.497 ± 0.15.

For the variant EASNCFAHRHFENKFAVETLICFNLFLNSQEKHY, the amyloid nucleation score amounted to 0.873 ± 0.21.

EASNCFACRHFENKFAVETLICFNLFLNSQEKHY: the amyloid nucleation score came out at 0.524 ± 0.14.

Take EASNCFAERHFENKFAVETLICFNLFLNSQEKHY: the amyloid nucleation score was 0.604 ± 0.17.

EASNCFAFRHFENKFAVETLICFNLFLNSQEKHY: the amyloid nucleation score was found to be 0.15 ± 0.14.

EASNCFAGRHFENKFAVETLICFNLFLNSQEKHY: the amyloid nucleation score turned out to be 0.834 ± 0.11.

Turning to EASNRFAIRHFENKFAVETLICFNLFLNSQEKHY, the amyloid nucleation score was 0.0293 ± 0.12.

With EASNIFAIRHFENKFAVETLICFNLFLNSQEKHY, the amyloid nucleation score is -0.166 ± 0.15.

Take EASNEFAIRHFENKFAVETLICFNLFLNSQEKHY: the amyloid nucleation score amounted to 0.484 ± 0.21.

In the case of EASNTFAIRHFENKFAVETLICFNLFLNSQEKHY, the amyloid nucleation score was -0.0743 ± 0.15.

For EASNHFAIRHFENKFAVETLICFNLFLNSQEKHY, the amyloid nucleation score worked out at 0.0549 ± 0.26.

On to EASNNFAIRHFENKFAVETLICFNLFLNSQEKHY, for which the amyloid nucleation score was 0.0664 ± 0.2.

For the variant EASNSFAIRHFENKFAVETLICFNLFLNSQEKHY, the amyloid nucleation score was 0.0127 ± 0.12.

EASNQFAIRHFENKFAVETLICFNLFLNSQEKHY: the amyloid nucleation score came out at 0.396 ± 0.27.

Regarding EASNAFAIRHFENKFAVETLICFNLFLNSQEKHY, the amyloid nucleation score was 0.274 ± 0.14.

Regarding EASNVFAIRHFENKFAVETLICFNLFLNSQEKHY, the amyloid nucleation score is -0.199 ± 0.12.

In the case of EASNFFAIRHFENKFAVETLICFNLFLNSQEKHY, the amyloid nucleation score stood at 0.0304 ± 0.15.

On to EASNMFAIRHFENKFAVETLICFNLFLNSQEKHY, for which the amyloid nucleation score was determined as 0.796 ± 0.19.

Take EASNLFAIRHFENKFAVETLICFNLFLNSQEKHY: the amyloid nucleation score was -0.0462 ± 0.12.

In the case of EASNGFAIRHFENKFAVETLICFNLFLNSQEKHY, the amyloid nucleation score was found to be 0.214 ± 0.11.

In the case of EASNKFAIRHFENKFAVETLICFNLFLNSQEKHY, the amyloid nucleation score is -0.223 ± 0.21.

Regarding EASNWFAIRHFENKFAVETLICFNLFLNSQEKHY, the amyloid nucleation score was -1.36 ± 0.21.

For the variant EASNYFAIRHFENKFAVETLICFNLFLNSQEKHY, the amyloid nucleation score is -0.00901 ± 0.15.

As for EASNPFAIRHFENKFAVETLICFNLFLNSQEKHY, the amyloid nucleation score turned out to be 0.685 ± 0.19.

On to EASNDFAIRHFENKFAVETLICFNLFLNSQEKHY, for which the amyloid nucleation score worked out at 0.699 ± 0.18.

The values are drawn from the supplement of paper PMC12067230.
